From the DeepSol protein solubility set

Test: soluble on expression in E. coli; label from the status in PepcDB or PDB records

Sequence | soluble on expression in E. coli
MRGFLSGEFELSSVEDAEVVIINSCGVIDFTERKIIRRMLDLKREGKKVVLAGCLTRISKEALSVADSALSPDNLDMVVDAVYSALNGRKLFTERRFIDKAEFSHLKCRLRENAIAIVSISEGCLGKCSFCATKFARGRLRSFSMDAIVREAERAVRAGYREIQLTSQDTGAYGMDKGRAMLPELLRKISEIEGEFRVRVGMMNPQHAVRMLDELINAYSSEKIYKFLHIPVQSGDNRILEDMKRNHTVEDYVEVVEAFRNSFDDVLISTDIIVGFPTETEEAFWKSYELIKETRPDIVNITRYSARKGTPAARLRDIPGWIKKERSRKLTDLMRKIGLENNKRFVGKKLRVLVTKEGKNGRNLARMNSYRAVVTEGAVGEFVEVKIKDCRFNYLIGQLAAEQPQLEHHHHHH | not soluble
MRGIHRLSALLVKSASQGKYCDGAGLWLNVRKDNTRSWFFRYTYHNKRREMGLGPVAQLSLKEARELAKHYSAILREGNDPIVFREQTVLKQQSNIFSEIATAAFESKKAELKNEGKNGRWFSPLELHVIPHIGSLSIEKLTANIIRNVLAPLWHEKADTARKALNRINICLKYAAALGLDVDLQACMKARALLGKPRATSTNIPAMPWQEVPAFYQSLDDKILSNLALKLLILTGVRSYPLRYLRLEQIDKDIWTIPKENMKGIVGKVSDFRVPLSHEALKMIEKSLPFEKNGFLFAGSSGKPISDVTLSKFMKDKGFDYRPHGFRSSLRDWIAETTSTPFEIAETVLAHSVGSSVTKAYMRTDFLEQRHTLMEQWAAFITGAT | not soluble
MRGIVTIDGPSASGKSSVARRVAAALGVPYLSSGLLYRAAAFLALRAGVDPGDEEGLLALLEGLGVRLLAQAEGNRVLADGEDLTSFLHTPEVDRVVSAVARLPGVRAWVNRRLKEVPPPFVAEGRDMGTAVFPEAAHKFYLTASPEVRAWRRARERPQAYEEVLRDLLRRDERDKAQSAPAPDALVLDTGGMTLDEVVAWVLAHIRR | soluble
MRGLKTFSILGLIVALLLVAACGNTDNSSKKESSTKDTISVKDENGTVKVPKDAKRIVVLEYSFADALAALDVKPVGIADDGKKKRIIKPVREKIGDYTSVGTRKQPNLEEISKLKPDLIIADSSRHKGINKELNKIAPTLSLKSFDGDYKQNINSFKTIAKALNKEKEGEKRLAEHDKLINKYKDEIKFDRNQKVLPAVVAKAGLLAHPNYSYVGQFLNELGFKNALSDDVTKGLSKYLKGPYLQLDTEHLADLNPERMIIMTDHAKKDSAEFKKLQEDATWKKLNAVKNNRVDIVDRDVWARSRGLISSEEMAKELVELSKKEQK | not soluble
MRGLLVATWIFVSVAASATPTTTTKSPPPTTTTLSPQILKAKLPPVVKNATWECGTDEFTKSISEGEIQAKCPKLRDHINSCCLQHDGCYEAQSGQKFCDDTFCSCLERRSRSSKSCHDESAPLFCDLVRTFGDGAYEASGPNASTTEESPAEKDDYDYESHVAGLNATPSSST | not soluble
MRGMLPLFEPKGRVLLVDGHHLAYRTFHALKGLTTSRGEPVQAVYGFAKSLLKALKEDGDAVIVVFDAKAPSFRHEAYGGYKAGRAPTPEDFPRQLALIKELVDLLGLARLEVPGYEADDVLASLAKKAEKEGYEVRILTADKDLYQLLSDRIHVLHPEGYLITPAWLWEKYGLRPDQWADYRALTGDESDNLPGVKGIGEKTARKLLEEWGSLEALLKNLDRLKPAIREKILAHMDDLKLSWDLAKVRTDLPLEVDFAKRREPDRERLRAFLERLEFGSLLHEFGLLESPKALEEAPWPPPEGAFVGFVLSRKEPMWADLLALAAARGGRVHRAPEPYKALRDLKEARGLLAKDLSVLALREGLGLPPGDDPMLLAYLLDPSNTTPEGVARRYGGEWTEEAGERAALSERLFANLWGRLEGEERLLWLYREVERPLSAVLAHMEATGVRLDVAYLRALSLEVAEEIARLEAEVFRLAGHPFNLNSRDQLERVLFDELGLPAIGKTEKTGKRSTSAAVLEALREAHPIVEKILQYRELTKLKSTYIDPLPDLIHPRTGRLHTRFNQTATATGRLCCCDPNLQNIPVRTPLGQRIRRGFIAEEGWLLVALDYSQIELRVLAHLSGDENLIRVFQEGRDIHTETASWMFGVPREAVDPLMRRAAKTINFGVLYGMSAHRLSQELAIPYEEAQAFIERYFQSFPKVRAWIEKTLEEGRRRGYVETLFGRRRYVPDLEARVKSVREAAERMAFNMPVQGTAADLMKLAMVKLFPRLEEMGARMLLQVHDELVLEAPKERAEAVARLAKEVMEGVYPLAVPLEVEVGIGEDWLSAKE | soluble
MRGSHHHHHHGAGDRGPEFPEESSPRRTPQSIPYQDLPHLVNADGQYLFCRYWKPTGTPKALIFVSHGAGEHSGRYEELARMLMGLDLLVFAHDHVGHGQSEGERMVVSDFHVFVRDVLQHVDSMQKDYPGLPVFLLGHSMGGAIAILTAAERPGHFAGMVLISPLVLANPESATTFKVLAAKVLNLVLPNLSLGPIDSSVLSRNKTEVDIYNSDPLICRAGLKVCFGIQLLNAVSRVERALPKLTVPFLLLQGSADRLCDSKGAYLLMELAKSQDKTLKIYEGAYHVLHKELPEVTNSVFHEINMWVSQRTATAGTASPPLEVDLQGDHGLSAWSHPQFEK | soluble
MRGSHHHHHHGSDPAPDAVAQQWAIFRAKYLRPSGRVVDTGNGGESHSEGQGYGMLFAASAGDLASFQSMWMWARTNLQHTNDKLFSWRFLKGHQPPVPDKNNATDGDLLIALALGRAGKRFQRPDYIQDAMAIYGDVLNLMTMKAGPYVVLMPGAVGFTKKDSVILNLSYYVMPSLLQAFDLTADPRWRQVMEDGIRLVSAGRFGQWRLPPDWLAVNRATGALSIASGWPPRFSYDAIRVPLYFYWAHMLAPNVLADFTRFWNNFGANALPGWVDLTTGARSPYNAPPGYLAVAECTGLDSAGELPTLDHAPDYYSAALTLLVYIARAEETIK | soluble
MRGSHHHHHHGSGSMHQRQTLYQLMDGLNTFYQQSLQQPVATSARQYLEKRGLSHEVIARFAIGFAPPGWDNVLKRFGGNPENRQSLIDAGMLVTNDQGRSYDRFRERVMFPIRDKRGRVIGFGGRVLGNDTPKYLNSPETDIFHKGRQLYGLYEAQQDNAEPNRLLVVEGYMDVVALAQYGINYAVASLGTSTTADHIQLLFRATNNVICCYDGDRAGRDAAWRALETALPYMTDGRQLRFMFLPDGEDPDTLVRKEGKEAFEARMEQAMPLSAFLFNSLMPQVDLSTPDGRARLSTLALPLISQVPGETLRIYLRQELGNKLGILDDSQLERLMPK | soluble
MRGSHHHHHHGSRSSKNVIKEFMRFKVRMEGTVNGHEFEIEGEGEGRPYEGHNTVKLKVTKGGPLPFAWDILSPQFQYGSKVYVKHPADIPDYKKLSFPEGFKWERVMNFEDGGVVTVTQDSSLQDGCFIYKVKFIGVNFPSDGPVMQKKTMGWEASTERLYPRDGVLKGEIHKALKLKDGGHYLVEFKSIYMAKKPVQLPGYYYVDSKLDITSHNEDYTIVEQYERTEGRHHLFL | soluble
MRGSHHHHHHKHGQFTLRDMYEQFQNIMKMGPFSQILGMIPGFGTDFMSKGNEQESMARLKKLMTIMDSMNDQELDSTDGAKVFSKQPGRIQRVARGSGVSTRDVQELLTQYTKFAQMVKKMGGIKGLF | soluble
MRGSHHHHHHTDPALRAENIMNNPVIGVVMCRNRLKGHATQTLQEKYLNAIIHAGGLPIALPHALAEPSLLEQLLPKLDGIYLPGSPSNVQPHLYGENGDEPDADPGRDLLSMAIINAALERRIPIFAICRGLQELVVATGGSLHRKLCEQPELLEHREDPELPVEQQYAPSHEVQVEEGGLLSALLPECSNFWVNSLHGQGAKVVSPRLRVEARSPDGLVEAVSVINHPFALGVQWHPEWNSSEYALSRILFEGFITACQHHIAEKQRLGLCGR | soluble
MRGSHHHHHHTDPALRAMATLLQLHFAFNGPFGDAMAEQLKPLAESINQEPGFLWKVWTESEKNHEAGGIYLFTDEKSALAYLEKHTARLKNLGVEEVVAKVFDVNEPLSQINQAKLAGLCGR | soluble
MRGSHHHHHHTDPALRANITPFPTLSPATIDAINVIGQWLAQDDFSGEVPYQADCVILAGNAVMPTIDAACKIARDQQIPLLISGGIGHSTTFLYSAIAQHPHYNTIRTTGRAEATILADIAHQFWHIPHEKIWIEDQSTNCGENARFSIALLNQAVERVHTAIVVQDPTMQRRTMATFRRMTGDNPDAPRWLSYPGFVPQLGNNADSVIFINQLQGLWPVERYLSLLTGELPRLRDDSDGYGPRGRDFIVHVDFPAEVIHAWQTLKHDAVLIEAMESRSLRGLCGR | soluble
MRGSHHHHHHTDPALRAQDAAPRLTFTLRDEERLMMKIGVFVPIGNNGWLISTHAPQYMPTFELNKAIVQKAEHYHFDFALSMIKLRGFGGKTEFWDHNLESFTLMAGLAAVTSRIQIYATAATLTLPPAIVARMAATIDSISGGRFGVNLVTGWQKPEYEQMGIWPGDDYFSRRYDYLTEYVQVLRDLWGTGKSDFKGDFFTMNDCRVSPQPSVPMKVICAGQSDAGMAFSARYADFNFCFGKGVNTPTAFAPTAARMKQAAEQTGRDVGSYVLFMVIADETDDAARAKWEHYKAGADEEALSWLTEQSQKDTRSGTDTNVRQMADPTSAVNINMGTLVGSYASVARMLDEVASVPGAEGVLLTFDDFLSGIETFGERIQPLMQCRAHLPALTQEVAGLCGR | soluble
MRIEVTIAKTSPLPAGAIDALAGELSRRIQYAFPDNEGHVSVRYAAANNLSVIGATKEDKQRISEILQETWESADDWFVSE | soluble
MRILNVSLLVLASSLVAFVECGRDFYKILGVAKNANANQIKKAYRKLAKELHPDRNQDDEMANEKFQDLSSAYEVLSDKEKRAMYDRHGEEGVAKMGGGGGGGHDPFSSFFGDFFGGGGGHGGEEGTPKGADVTIDLFVTLEEVYNGHFVEIKRKKAVYKQTSGTRQCNCRHEMRTEQMGQGRFQMFQVKVCDECPNVKLVQENKVLEVEVEVGADNGHQQIFHGEGEPHIEGDPGDLKFKIRIQKHPR | not soluble
MRIMASHDTPVSPAGILIDLDGTVFRGNELIEGAREAIKTLRRMGKKIVFLSNRGNISRAMCRKKLLGAGIETDVNDIVLSSSVTAAFLKKHYRFSKVWVLGEQGLVDELRLAGVQNASEPKEADWLVISLHETLTYDDLNQAFQAAAGGARIIATNKDRSFPNEDGNAIDVAGMIGAIETSAQAKTELVVGKPSWLMAEAACTAMGLSAHECMIIGDSIESDIAMGKLYGMKSALVLTGSAKQGEQRLYTPDYVLDSIKDVTKLAEEGILILEHHHHHH | not soluble
MRISGVTLFRVSSQLRNVVNGQWTTTHYTVKDRSTDPRWKDVDLARESDVYDVVIVGGGPSGLSAAIRLRQLAEKAQKELRVCVVEKASVIGGHTLSGAVIETRALDELIPNWKELGAPVYQQVTSESIAILTESGRIPVPVLPGVPLANHGNYIVRLGKVVQWLGEQAEAAGVEVWPEIAASEVLYNEDGSVKGIATSDVGIGKDGAPKDGFARGMEFHAKCTIFAEGCRGHLSKQVLDKFDLRTHAMTYGIGLKELWEIDPAKHRPGYVEHTMGWPLNVDQYGGSFLYHIEDQGQPLVSVGFVVALDYANPNLNPYKEFQKYKTHPSISKQLEGGKRIGYGARALNEGGFQSIPKLHFPGGCLVGCSAGFLNVAKLKGTHNAMKSGMVAAESIFEDIQQKGEDVQTIDPATYDKNIRDTYVVKELKATRNIRPSFNTSLGYIGGLIYSGIFYVFGRGIEPWTLGHGKKDNEKLIPVKDAKEIDYPKPDGKLTFDLLTSVSLTGTNHTEDQPAHLTLKNDQVPLDVNLAVYGGPEARFCPAGVYEFVPSEADESKKRLQINAQNCIHCKTCDIKDPQQNINWVTPEGGGGPKYEGM | not soluble
MRISTLQGQYQCIIIDPPWFYRLRSKDKTHRNRIPYQPMRTPEILALPIPDLCDAGGCVLWLWFTNNHMIEAAQCLQRWGFDLKTILTWGKVTKDGTKTHLGVGHWLRNSTEHCALAVRGNVKAFAGQTSTTGGTPTLTNQSTILHSPRREHSRKPPEFFELVEKLCPDMTKLEIFARESRDGWDCWGDQADLFDASDEEILVKAEKVLLLEHHHHHH | not soluble
